According to PMC8489103, “The collagen structure of C1q induces wound healing by engaging discoidin domain receptor 2” (Molecular Medicine, 2021):
Where no end group is shown, it is not given here. The star is where a group is joined. Biotin = O=C1N[C@H]2[C@H](CS[C@H]2CCCCC(=O)*)N1

T1: NS0-derived recombinant mouse DDR2-Fc chimera protein (mouse, UniProt Q62371 24-399)
T1 construct: discoidin domain receptor 2 (DDR2), mouse, ectodomain Gln24-Arg399; also called 7479-DR; source: bought: R&D Systems (7479-DR), NS0-derived; not shown: Fc (mouse IgG2A, Glu98-Lys330), C-terminal, kept
T1 sequence (looked up): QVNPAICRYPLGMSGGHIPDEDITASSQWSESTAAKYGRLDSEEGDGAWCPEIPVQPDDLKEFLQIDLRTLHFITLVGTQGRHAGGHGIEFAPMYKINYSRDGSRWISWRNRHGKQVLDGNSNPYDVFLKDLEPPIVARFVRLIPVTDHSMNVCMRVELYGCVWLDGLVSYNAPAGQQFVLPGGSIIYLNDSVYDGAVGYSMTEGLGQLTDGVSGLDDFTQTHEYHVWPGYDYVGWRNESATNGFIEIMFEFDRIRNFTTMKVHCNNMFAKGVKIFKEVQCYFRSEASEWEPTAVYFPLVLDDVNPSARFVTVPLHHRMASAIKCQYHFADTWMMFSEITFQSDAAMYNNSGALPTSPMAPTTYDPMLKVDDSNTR

B1: Recombinant human DDR2 possessing the ectodomain of DDR2 (Gln24-Arg399) with 6 × His-tag on C-terminal (domain or fragment, UniProt Q16832 24-399, looked up)
chain: QVNPAICRYPLGMSGGQIPDEDITASSQWSESTAAKYGRLDSEEGDGAWCPEIPVEPDDLKEFLQIDLHTLHFITLVGTQGRHAGGHGIEFAPMYKINYSRDGTRWISWRNRHGKQVLDGNSNPYDIFLKDLEPPIVARFVRFIPVTDHSMNVCMRVELYGCVWLDGLVSYNAPAGQQFVLPGGSIIYLNDSVYDGAVGYSMTEGLGQLTDGVSGLDDFTQTHEYHVWPGYDYVGWRNESATNGYIEIMFEFDRIRNFTTMKVHCNNMFAKGVKIFKEVQCYFRSEASEWEPNAISFPLVLDDVNPSARFVTVPLHHRMASAIKCQYHFADTWMMFSEITFQSDAAMYNNSEALPTSPMAPTTYDPMLKVDDSNTR
notes: discoidin domain receptor 2 (DDR2), human, ectodomain Gln24-Arg399; also called sDDR2; sDDR; source: bought: R&D Systems (2538-DR); not shown: 6xHis, C-terminal, kept
B2: C1qA peptide (Biotin-GSKGEQGEPGAPGI) (peptide)
peptide: Biotin-GSKGEQGEPGAPGI
notes: first two residues of the printed peptide; also called C1q collagen tail peptide; biotinylated C1qA peptide; source: synthetic peptide (GenScript)

Key:
Conditions in all cases: both partners purified
[1] = biological target: T2, human C1q protein (human, UniProt P02745 23-245; P02746 28-253; P02747 29-245); assay: SPR; Biacore 3000; sDDR2 immobilised on CM5 chip; C1q 0, 2.5, 5, 10, 20, 40 μg/mL as analyte; 10 mM HEPES pH 7.4, 25 °C, 10 μL/min
T2 construct: complement C1q subcomponent subunit A, human; complement C1q subcomponent subunit B, human; complement C1q subcomponent subunit C, human; the bought protein is purified from human serum; source: bought: Sigma-Aldrich (C1740); for stimulation of cells Complement Technologies (A099); copies: + +

[2] = biological target: T1, NS0-derived recombinant mouse DDR2-Fc …; assay: far-Western, overlay or dot blot; DDR2-Fc, DDR1-Fc or Fc (20 μg per spot) blotted on nitrocellulose; biotinylated C1qA peptide (200 nM) in 3% skim milk, RT, 2 h; detected with streptavidin
[3] = biological target: B1; assay: ELISA; C1qA peptide or control peptide coated at 8 μg/mL; sDDR2 (0.1, 0.5, 2, 8 μg/mL) added, RT, 2 h; detected with AP-conjugated anti-6x-His

T2 sequence (P02745 23-245, chain 1 of 3): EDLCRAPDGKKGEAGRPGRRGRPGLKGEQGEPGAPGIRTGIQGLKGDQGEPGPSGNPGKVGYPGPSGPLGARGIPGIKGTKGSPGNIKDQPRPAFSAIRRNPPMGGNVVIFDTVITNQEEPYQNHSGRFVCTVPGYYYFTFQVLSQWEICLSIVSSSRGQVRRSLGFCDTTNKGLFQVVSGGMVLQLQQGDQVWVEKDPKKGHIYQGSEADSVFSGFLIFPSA
T2 sequence (P02746 28-253, chain 2 of 3): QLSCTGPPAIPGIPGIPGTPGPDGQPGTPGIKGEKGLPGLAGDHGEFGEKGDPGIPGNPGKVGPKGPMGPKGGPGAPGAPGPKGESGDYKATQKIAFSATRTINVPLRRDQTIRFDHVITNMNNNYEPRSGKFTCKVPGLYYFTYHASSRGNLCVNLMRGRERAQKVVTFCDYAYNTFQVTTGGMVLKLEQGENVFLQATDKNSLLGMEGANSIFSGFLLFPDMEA
T2 sequence (P02747 29-245, chain 3 of 3): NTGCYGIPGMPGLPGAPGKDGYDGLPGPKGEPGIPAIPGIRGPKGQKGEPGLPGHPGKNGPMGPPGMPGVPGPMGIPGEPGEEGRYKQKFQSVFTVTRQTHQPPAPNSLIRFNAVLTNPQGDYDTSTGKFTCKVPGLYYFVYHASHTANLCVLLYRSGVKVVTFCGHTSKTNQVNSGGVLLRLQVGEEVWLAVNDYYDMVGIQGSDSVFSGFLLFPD

## B1
[1]
  Kd: 183 nM

## B2
[2]
  binding result: binds
[3]
  binding result: binds
